Paper PMC10968091, “Crystallization of Ethylene Plant Hormone Receptor—Screening for Structure” (Biomolecules, 2024)

B1: ETR1^1-316 (domain or fragment, Arabidopsis thaliana, UniProt P49333 1-316, looked up)
chain: MEVCNCIEPQWPADELLMKYQYISDFFIAIAYFSIPLELIYFVKKSAVFPYRWVLVQFGAFIVLCGATHLINLWTFTTHSRTVALVMTTAKVLTAVVSCATALMLVHIIPDLLSVKTRELFLKNKAAELDREMGLIRTQEETGRHVRMLTHEIRSTLDRHTILKTTLVELGRTLALEECALWMPTRTGLELQLSYTLRHQHPVEYTVPIQLPVINQVFGTSRAVKISPNSPVARLRPVSGKYMLGEVVAVRVPLLHLSNFQINDWPELSTKRYALMVLMLPSDSARQWHVHELELVEVVADQVAVALSHAAILEES
notes: From pETEV16b; also called AtETR1^1-316; ETR1 (aa 1-316); source: E. coli C41(DE3)∆(ompF-acrAB), purified (IMAC); not shown: His10, N-terminal, kept
B2: ETR1^1-157 mT2 (domain or fragment, Arabidopsis thaliana, UniProt P49333 1-157, looked up)
chain: MEVCNCIEPQWPADELLMKYQYISDFFIAIAYFSIPLELIYFVKKSAVFPYRWVLVQFGAFIVLCGATHLINLWTFTTHSRTVALVMTTAKVLTAVVSCATALMLVHIIPDLLSVKTRELFLKNKAAELDREMGLIRTQEETGRHVRMLTHEIRSTL
notes: Ethylene response 1 (ETR1), Arabidopsis thaliana, residues 1-157 (aa 158-738 removed); transmembrane domain; From pGEX4T-1; also called ETR1^1-157 mT2 10x His; source: E. coli C41(DE3)∆(ompF-acrAB), purified (IMAC); not shown: His10, C-terminal, kept
B3: ETR2^1-186 mT2 (domain or fragment, Arabidopsis thaliana, UniProt Q0WPQ2 1-186, looked up)
chain: MVKEIASWLLILSMVVFVSPVLAINGGGYPRCNCEDEGNSFWSTENILETQRVSDFLIAVAYFSIPIELLYFVSCSNVPFKWVLFEFIAFIVLCGMTHLLHGWTYSAHPFRLMMAFTVFKMLTALVSCATAITLITLIPLLLKVKVREFMLKKKAHELGREVGLILIKKETGFHVRMLTQEIRKSL
notes: Ethylene response 2 (ETR2), Arabidopsis thaliana, residues 1-186 (aa 187-773 removed); transmembrane domain; From pGEX4T-1; The plasmid name and the methods put mT2 next to the C-terminal 10x His-tag; also called ETR2 (aa 1-186); ETR2^1-186 mT2 10x His; source: E. coli C41(DE3)∆(ompF-acrAB), purified (IMAC); not shown: His10, C-terminal, kept
B4: ETR1^1-407 (domain or fragment, Arabidopsis thaliana, UniProt P49333 1-407, looked up)
chain: MEVCNCIEPQWPADELLMKYQYISDFFIAIAYFSIPLELIYFVKKSAVFPYRWVLVQFGAFIVLCGATHLINLWTFTTHSRTVALVMTTAKVLTAVVSCATALMLVHIIPDLLSVKTRELFLKNKAAELDREMGLIRTQEETGRHVRMLTHEIRSTLDRHTILKTTLVELGRTLALEECALWMPTRTGLELQLSYTLRHQHPVEYTVPIQLPVINQVFGTSRAVKISPNSPVARLRPVSGKYMLGEVVAVRVPLLHLSNFQINDWPELSTKRYALMVLMLPSDSARQWHVHELELVEVVADQVAVALSHAAILEESMRARDLLMEQNVALDLARREAETAIRARNDFLAVMNHEMRTPMHAIIALSSLLQETELTPEQRLMVETILKSSNLLATLMNDVLDLSRLED
notes: Ethylene response 1 (ETR1), Arabidopsis thaliana, residues 1-407; From pETEV16b; also called AtETR1^1-407; source: E. coli C41(DE3)∆(ompF-acrAB), purified (IMAC); not shown: His10, N-terminal, kept

Biological target: the molecule itself
Experiment: SDS-PAGE and Western blot; IMAC-purified receptor constructs on SDS-PAGE (colloidal Coomassie) and Western blot (anti-GFP-HRP for ETR2^1-186 mT2, anti-His-HRP for the others); SDS-stable dimers seen beside monomers

Binding result, binds:
B1, B2, B3, B4
